In patent publication US20160297884A1 (Pfizer, published 2016):

B1: L3.PY/L1.AH/H3.TAQ (antibody, V domains shown)
VH: EVQLLESGGGLVQPGGSLRLSCAASGFTFGSYAMTWVRQAPGKGLEWVSAISGSGGNTFYADSVKGRFTISRDNSKNTLYLQMNSLRAEDTAVYYCTRVSPIAAQMDYWGQGTLVTVSS
VL: EIVLTQSPGTLSLSPGERATLSCRASQSVSAHYLAWYQQKPGQAPRLLIYGASSRATGIPDRFSGSGSGTDFTLTISRLEPEDFAVYYCQHYPYPPSFTFGQGTKVEIK
notes: IgG
B2: L3.PY/L1.FF/H2.LT (antibody, V domains shown)
VH: EVQLLESGGGLVQPGGSLRLSCAASGFTFGSYAMTWVRQAPGKGLEWVSAISLTGGNTFYADSVKGRFTISRDNSKNTLYLQMNSLRAEDTAVYYCARVSPIASGMDYWGQGTLVTVSS
VL: EIVLTQSPGTLSLSPGERATLSCRASQSVSSFFLAWYQQKPGQAPRLLIYGASSRATGIPDRFSGSGSGTDFTLTISRLEPEDFAVYYCQHYPYPPSFTFGQGTKVEIK
notes: IgG
B3: L3.PY/L1.FF/H2.HA (antibody, V domains shown)
VH: EVQLLESGGGLVQPGGSLRLSCAASGFTFGSYAMTWVRQAPGKGLEWVSAISHAGGNTFYADSVKGRFTISRDNSKNTLYLQMNSLRAEDTAVYYCARVSPIASGMDYWGQGTLVTVSS
VL: EIVLTQSPGTLSLSPGERATLSCRASQSVSSFFLAWYQQKPGQAPRLLIYGASSRATGIPDRFSGSGSGTDFTLTISRLEPEDFAVYYCQHYPYPPSFTFGQGTKVEIK
notes: IgG
B4: L3.PY/L1.FF/H2.DY (antibody, V domains shown)
VH: EVQLLESGGGLVQPGGSLRLSCAASGFTFGSYAMTWVRQAPGKGLEWVSAIDYSGGNTFYADSVKGRFTISRDNSKNTLYLQMNSLRAEDTAVYYCARVSPIASGMDYWGQGTLVTVSS
VL: EIVLTQSPGTLSLSPGERATLSCRASQSVSSFFLAWYQQKPGQAPRLLIYGASSRATGIPDRFSGSGSGTDFTLTISRLEPEDFAVYYCQHYPYPPSFTFGQGTKVEIK
notes: IgG
B5: L3.PY/L1.FF/H2.YQ (antibody, V domains shown)
VH: EVQLLESGGGLVQPGGSLRLSCAASGFTFGSYAMTWVRQAPGKGLEWVSAISYQGGNTFYADSVKGRFTISRDNSKNTLYLQMNSLRAEDTAVYYCARVSPIASGMDYWGQGTLVTVSS
VL: EIVLTQSPGTLSLSPGERATLSCRASQSVSSFFLAWYQQKPGQAPRLLIYGASSRATGIPDRFSGSGSGTDFTLTISRLEPEDFAVYYCQHYPYPPSFTFGQGTKVEIK
notes: IgG
B6: L3.PY/L1.FF/H2.QR (antibody, V domains shown)
VH: EVQLLESGGGLVQPGGSLRLSCAASGFTFGSYAMTWVRQAPGKGLEWVSAISGSGGNTFYADQRKGRFTISRDNSKNTLYLQMNSLRAEDTAVYYCARVSPIASGMDYWGQGTLVTVSS
VL: EIVLTQSPGTLSLSPGERATLSCRASQSVSSFFLAWYQQKPGQAPRLLIYGASSRATGIPDRFSGSGSGTDFTLTISRLEPEDFAVYYCQHYPYPPSFTFGQGTKVEIK
notes: IgG
B7: L3.PY/L1.FF/H2.QL (antibody, V domains shown)
VH: EVQLLESGGGLVQPGGSLRLSCAASGFTFGSYAMTWVRQAPGKGLEWVSAISGSGGNTFYADQLKGRFTISRDNSKNTLYLQMNSLRAEDTAVYYCARVSPIASGMDYWGQGTLVTVSS
VL: EIVLTQSPGTLSLSPGERATLSCRASQSVSSFFLAWYQQKPGQAPRLLIYGASSRATGIPDRFSGSGSGTDFTLTISRLEPEDFAVYYCQHYPYPPSFTFGQGTKVEIK
notes: IgG

Target: T1, Human BCMA (human, UniProt Q02223 1-54, limits assumed)
T1 construct: Soluble analyte in SPR; construct not described; also called huBCMA; B-cell maturation antigen
T1 sequence (looked up): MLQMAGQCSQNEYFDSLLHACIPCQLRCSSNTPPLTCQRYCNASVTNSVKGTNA
Assay: SPR, IgG immobilised, 37 C
Protocol: All experiments were performed on a Bio-Rad Proteon XPR36 surface Plasmon resonance biosensor (Bio-Rad, Hercules, Calif.). […] The analysis temperature for the immobilization was 25° C. and the running buffer was HBS-T+(10 mM HEPES, 150 mM NaCl, 0.05% Tween-20, pH 7.4). Channels were activated in the analyte (horizontal) direction by injecting a mixture of 1 mM ECD and 0.25 mM NHS for 3 minutes at a flow rate of 30 μL/min. IgGs were immobilized on the activated spots by injecting them in the ligand (vertical) direction at 20 μg/mL in 10 mM Acetate pH 4.5 buffer for 1.5 minutes at […]. The activated surfaces were blocked by injecting 1M ethanolamine, pH 8.5 in the analyte direction for 3 minutes at 30 μL/min.
The analysis temperature for the BCMA binding analysis was 37° C. or 25° C. in a running buffer of HBS-T+, supplemented with 1 mg/mL BSA. A kinetic titration method was employed for the interaction analysis as described in Abdiche, et al. Human BCMA (huBCMA) or cynomolgus monkey BCMA (cyBCMA) analyte was injected in the analyte direction using a series of injections from low to high concentration. The concentrations used were 0.08 nM, 0.4 nM, 2 nM, 10 nM and 50 nM (a 5-membered series, with a 5-fold dilution factor and top concentration of 50 nM). The association time for a given analyte dilution was two minutes. Immediately after the 50 nM BCMA injection, dissociation was monitored for 2 hours.
The sensorgrams were double-referenced and fit to a 1:1 Langmuir with mass transport kinetic titration model in BIAevaluation Software version 4.1.1 (GE Lifesciences, Piscataway, N.J.).

Point of comparison: B3, Kd 0.63 nM. Against it:
- B1 — 1.7-fold lower, 0.37 nM
- B2 — within 1.5-fold, 0.51 nM
- B4 — within 1.5-fold, 0.65 nM
- B5 — within 1.5-fold, 0.46 nM
- B6 — within 1.5-fold, 0.51 nM
- B7 — 1.6-fold lower, 0.4 nM

Point of comparison: B1, “T ½” value 9.68 min. Against it:
- B2 — within 1.5-fold, 6.92 min
- B3 — 1.8-fold lower, 5.29 min
- B4 — 2.3-fold lower, 4.27 min
- B5 — within 1.5-fold, 7.61 min
- B6 — within 1.5-fold, 6.54 min
- B7 — within 1.5-fold, 8.28 min

Point of comparison: B6, koff 0.00177 s⁻¹. Against it:
- B1 — within 1.5-fold, 0.00119 s⁻¹
- B2 — within 1.5-fold, 0.00167 s⁻¹
- B3 — within 1.5-fold, 0.00219 s⁻¹
- B4 — 1.5-fold higher, 0.00271 s⁻¹
- B5 — within 1.5-fold, 0.00152 s⁻¹
- B7 — within 1.5-fold, 0.0014 s⁻¹

Point of comparison: B1, kon 3.27e+06 M⁻¹ s⁻¹. Against it:
- B2 — within 1.5-fold, 3.3e+06 M⁻¹ s⁻¹
- B3 — within 1.5-fold, 3.49e+06 M⁻¹ s⁻¹
- B4 — within 1.5-fold, 4.14e+06 M⁻¹ s⁻¹
- B5 — within 1.5-fold, 3.32e+06 M⁻¹ s⁻¹
- B6 — within 1.5-fold, 3.47e+06 M⁻¹ s⁻¹
- B7 — within 1.5-fold, 3.48e+06 M⁻¹ s⁻¹
